Earlier results, collected in EP3906935A1, “PEPTIDES FOR PREVENTING OR TREATING VIRAL INFECTIONS” (SORBONNE UNIVERSITE, priority 2020, dated 2021).

Conditions: N- and C-protected peptide; experimental data reported by Zhou et al.

## Ac-EAEKAAKEAEKAAKEAEK-NH2 [SEQ ID NO: 146, peptide of eighteen residues with N- and C-protected extremities previously built by Zhou et al]
  content of amphipathic helical structure in solution: 65%
